In paper PMC11374535:

Biological target: SlGrx9-nLUC
Assay: luciferase complementation assay (LCA) in N. benthamiana leaves, quantified with ImageJ
Conditions: parent: est. 6.1; read off a plot

**Q.** With cLUC-SlTrxh (from UniProt Q9LKW0) C54S as the substance, how does the response read?
**A.** 6

**Q.** For cLUC-SlTrxh (from UniProt Q9LKW0) C54W, which response is on record?
**A.** 15
